Experimental data reported in article PMC8528422.

Biological target: FleQ, full length (FleQFL) (Pseudomonas aeruginosa) (UniProt G3XCV0)
Sequence (G3XCV0 whole entry): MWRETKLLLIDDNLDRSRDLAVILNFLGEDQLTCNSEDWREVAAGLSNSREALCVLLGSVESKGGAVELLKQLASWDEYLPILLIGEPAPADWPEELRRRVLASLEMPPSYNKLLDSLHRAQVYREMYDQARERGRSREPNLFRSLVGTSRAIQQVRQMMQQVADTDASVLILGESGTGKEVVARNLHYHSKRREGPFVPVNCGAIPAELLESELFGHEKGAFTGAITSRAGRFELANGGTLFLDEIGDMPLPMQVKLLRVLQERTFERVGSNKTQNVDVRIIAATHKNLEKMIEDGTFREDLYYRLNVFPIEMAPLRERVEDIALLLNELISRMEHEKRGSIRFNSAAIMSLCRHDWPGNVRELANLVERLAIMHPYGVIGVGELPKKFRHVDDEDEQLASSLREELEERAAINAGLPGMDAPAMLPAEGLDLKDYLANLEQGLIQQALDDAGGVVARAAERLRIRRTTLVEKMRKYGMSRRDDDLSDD

B1: C-terminal peptide of FleN comprising the last 25 amino acids (peptide)
peptide: PANPRGHLEFFVERLVQHPATGSAV
Question: How did the ATPase activity of FleQ (1 μM) left with 100 μM C-terminal peptide of FleN turn out when B1 was run?
Answer: 66%
